Experimental data from patent publication US20210292392A1 (TSB THERAPEUTICS BEIJING, published 2021).

Assays:
[1] = molecular target: T1, full length spike of MERS-CoV (MERS-CoV, UniProt K9N5Q8 18-1353); assay: FACS, HEK 293T cells expressing the full length spike, anti-human IgG Fc PE
T1 construct: whole, on cells

[2] = molecular target: T2, full length spike of SARS-CoV (SARS-CoV, UniProt P59594 14-1255); assay: as above
T2 construct: whole, on cells

[3] = molecular target: recombinant RBD of the spike protein of SARS-CoV (SARS-CoV, UniProt P59594 306-527); assay: SPR, RBD on CM5 chip

T1 sequence (K9N5Q8 18-751, chain 1 of 2): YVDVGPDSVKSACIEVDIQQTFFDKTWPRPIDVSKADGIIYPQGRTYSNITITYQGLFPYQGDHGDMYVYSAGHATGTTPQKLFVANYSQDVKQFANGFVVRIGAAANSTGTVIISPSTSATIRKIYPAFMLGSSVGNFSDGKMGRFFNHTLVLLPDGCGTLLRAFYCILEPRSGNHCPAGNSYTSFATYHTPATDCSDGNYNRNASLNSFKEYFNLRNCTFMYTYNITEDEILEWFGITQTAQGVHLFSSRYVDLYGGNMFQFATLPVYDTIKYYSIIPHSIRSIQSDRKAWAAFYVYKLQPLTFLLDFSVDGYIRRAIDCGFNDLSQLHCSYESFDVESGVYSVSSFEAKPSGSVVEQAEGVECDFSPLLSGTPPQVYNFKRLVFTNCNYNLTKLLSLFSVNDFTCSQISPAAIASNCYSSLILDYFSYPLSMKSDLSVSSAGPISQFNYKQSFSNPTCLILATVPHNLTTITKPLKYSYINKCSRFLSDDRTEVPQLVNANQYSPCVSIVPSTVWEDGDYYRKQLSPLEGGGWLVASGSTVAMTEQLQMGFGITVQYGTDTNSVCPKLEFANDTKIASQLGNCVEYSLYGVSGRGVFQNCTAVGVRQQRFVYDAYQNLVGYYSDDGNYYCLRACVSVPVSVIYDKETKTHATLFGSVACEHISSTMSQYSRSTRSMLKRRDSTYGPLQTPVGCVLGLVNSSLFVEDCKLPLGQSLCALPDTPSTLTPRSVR
T1 sequence (K9N5Q8 752-1353, chain 2 of 2): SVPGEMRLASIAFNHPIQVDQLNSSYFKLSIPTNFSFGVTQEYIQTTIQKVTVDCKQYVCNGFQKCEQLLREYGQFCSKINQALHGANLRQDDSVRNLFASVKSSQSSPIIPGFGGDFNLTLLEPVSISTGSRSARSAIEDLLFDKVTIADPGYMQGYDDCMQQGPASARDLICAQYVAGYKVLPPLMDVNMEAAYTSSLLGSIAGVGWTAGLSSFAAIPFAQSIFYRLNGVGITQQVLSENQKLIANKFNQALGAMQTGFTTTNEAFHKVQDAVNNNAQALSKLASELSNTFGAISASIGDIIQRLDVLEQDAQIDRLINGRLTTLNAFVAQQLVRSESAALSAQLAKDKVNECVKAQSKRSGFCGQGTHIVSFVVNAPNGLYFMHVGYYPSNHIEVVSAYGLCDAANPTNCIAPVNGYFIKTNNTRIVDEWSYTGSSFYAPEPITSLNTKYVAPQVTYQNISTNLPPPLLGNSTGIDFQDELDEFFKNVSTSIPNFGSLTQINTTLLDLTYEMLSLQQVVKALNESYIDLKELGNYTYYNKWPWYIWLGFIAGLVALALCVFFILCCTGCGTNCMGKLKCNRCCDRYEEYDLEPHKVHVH

B1: P1A-1C10 (antibody, V domains shown)
VH: QVQLVQSGAEVKNPGSSVKVSCKAGGGTSSFYDINWVRQAPGQGLEWIGKIIPRLDIADYAQKSQGRVTITADKSTSTVYLELSSLKSDDTAVYFCARGRPGSEWAYGPFDLWGQGTLVTVSS
VL: DIQMTQSPSTLSASVGDRVTITCRASQSSRAWLAWYQQKPGKAPKLLISKASSLESGVPSRFSGSGYGTEFTLTISSLQPDDSATYYCHQYNSSPFTFGPGTKVQIKR
notes: human IgG1, kappa
[1]
  binding result: no binding (tested: 20 µg/ml)
[2]
  binding result: no binding (tested: 20 µg/ml)
[3]
  binding result: no binding (tested: not printed)
